Reference: patent publication US9915657B2, “Lateral flow device for diagnosing microbial infections” (THE JOHNS HOPKINS UNIVERSITY, priority 2009, dated 2018)

B1: MAb 838: IgMκ monoclonal antibody to galactofuranose-containing GM; VH SEQ ID NO:7, VL SEQ ID NO:8 (antibody, listed as Mus musculus, V domains shown)
VH: EVQLEESLRLSCATSGFTFSDFYMEWVRQPPGKRLEWIAASRNKANDYTTEYSASVKGRFFVSRDTSQSILYLQMNALRAEDTAIYYCARDVMITTGDWYFDVWGAGTTVTVSS
VL: DILMTQSQKFMSTSVGDRVSVTCKASQNVGTNVAWYQQKPGQSPKALIYSASYQYSGVPDRFTGSGSGTDFTLTISNVQSEDLAEYFCQQFNSYHVRLGDKVGIKT
modifications: (1)..(342) 838.9.4 VH (B4B); (1)..(318) 838.9.4. VL (p6)

Tests used:
[1] = rabbit model; within 24 hours of intravenous injection; cited from earlier work
[2] = Competition ELISA, relative affinities of GM-binding MAbs; design: species or system Aspergillus fumigatus
Experimental: FIG. 9 is a graph showing the relative affinities of GM-binding MAbs. Measurements were made by competition ELISA using soluble ethanol-precipitated culture filtrate. Percent of maximal binding is shown;
The relative affinities of the GM-binding MAbs were determined by competition ELISA. […] The % of maximal binding is shown in (FIG. 9). […] These values are similar to those reported for other polysaccharide-binding MAbs.
Competition ELISAs were done using each combination of the MAb pairs to confirm that the MAbs were binding to the same epitope and their relative avidities for GM. Biotinylation of the second MAb allowed the use of alkaline phosphatase-conjugated streptavidin for detection and was done by linkage of anion exchange-purified MAbs to sulfo-NHS-LC biotin. Competition among each of the MAb pairs was observed, supporting binding to similar epitopes or the presence of steric hindrance. […] The MAb 838-producing hybridoma manufactures relatively low concentrations of MAb, making use of this cell line difficult.

| Molecule | GM excreted in the urine [1] | Kd ([2]; calculated from competition ELISA, read-out: dissociation constant (Kd)) | affinity for GM, higher than the other three MAbs ([2]; competition ELISA) | concentration required for competition, lower than for the other MAbs ([2]; competition ELISA between MAb pairs) |
| --- | --- | --- | --- | --- |
| Galactomannan [GM] | 35% |  |  |  |
| B1 |  | 0.1 µM | approximately 10 fold | approximately 10 fold |
